Measured values taken from US20260226161A1 (EXELIXIS, published 2026).
Each block holds one binder with its values, some of them ahead of it.

Columns and labels:
[1] = biological target: T1, biotinylated cyno NKG2A/CD94 heterodimer (extracellular domains) (cynomolgus, UniProt Q9MZJ3 94-233; Q9MZK9 32-179, biotinylated); experiment: BLI (Octet), bivalent
T1 construct: also called Cynomolgus NKG2A protein; not shown: fusion partner/tags ('similar approach' to the human proteins); fusion partner ('similar approach')
Protocol: (§1) A total of 58 binders formatted as IgG antibodies from phage display as described in Example 1 were further tested for binding.
(§2) The antibodies were evaluated for binding to (1) human NKG2A, (2) human NKG2C, and (3) cyno NKG2A. Bivalent interaction of binders to biotinylated human NKG2A (see Example 1), biotinylated human NKG2C/CD94 heterodimer, or biotinylated cyno NKG2A/CD94 heterodimer immobilized on a streptavidin biosensor was monitored using Octet (Pall ForteBio) instrument. For these assays, human NKG2C/CD94 and cyno NKG2A/CD94 were prepared using the procedure as described in Example 1. Similarly, the extracellular domain of human NKG2C was expressed and purified from HEK293 cells as heterodimer with CD94 as Fc fusions. The extracellular domain of NKG2C used for selection campaigns encompassed amino acid sequence Ile94-Leu231 (Accession No. P26717-1; SEQ ID NO: 75). The gene encoding CD94 (Accession No. Q13241-1, SEQ ID NO:76), Lys33-Ile159 was synthesized from IDT and cloned into mammalian expression vector as an N-terminal Fc (hole) fusion. Plasmids encoding NKG2C-Fc fusion and CD94-Fc fusion were co-transfected into HEK293T cells using standard procedures. NKG2C/CD94 heterodimer was purified from cell supernatant using Protein A resins. Similar approach was used to obtain Cynomolgus NKG2A protein. Specifically, extracellular domain of Cynomolgus NKG2A contained amino acid Pro 94-Leu 233. […] Extracellular domain of Cynomolgus CD94 contained amino acid residues Lys 33-Ile 179 (Accession No. Q68VD4-1; SEQ ID NO: 78).

[2] = biological target: T2, biotinylated human NKG2C/CD94 heterodimer (extracellular domains, Fc fusions) (human, UniProt P26717 94-231; Q13241 32-179, biotinylated); experiment: BLI (Octet), bivalent
T2 construct: not shown: N-terminal Fc (hole)
Protocol: as §1, §2

[3] = biological target: T3, NKG2A expressed on KHYG-1 cells (endogenous) (human, UniProt P26715 1-233; Q13241 1-179); experiment: flow cytometry on KHYG-1 cells expressing endogenous NKG2A
T3 construct: whole, on cells; Surface NKG2A copy number of approximately 10-20K; also called KHYG-1 cells expressing endogenous NKG2A; NKG2A-expressing cells
Protocol: Antibodies that were selected for binding to NKG2A, for example, such as those described in Examples 1 and 2, were evaluated for binding to cells that express NKG2A.
Cells were harvested at 70-90% confluence on the day of the assay. Cells were collected by centrifugation at 200×g for 5 minutes and media was removed. Cells were resuspended at 2×10⁶ cells per mL in cold PBS. […] 50 μL per well of the antibody dilution was plated in a 96 well V-bottom plate (Costar 3897). 50 μL per well of cell suspension was added. Plates were placed at 4° C. for 45-60 minutes.

[4] = biological target: T3, NKG2A expressed on KHYG-1 cells …; experiment: as above; remark: listed apart in the source
Protocol: (§3) Cells were collected by centrifugation at 400×g for 7 minutes and primary antibody was removed. 50 μL per well of AF488 goat anti human IgG Fab (Jackson Immuno Research 109-547-003) at 1:100 dilution was added. Plates were placed at 4° C. for 30 minutes.
(§4) Cells were collected by centrifugation at 400×g for 7 minutes and secondary antibody was removed. Cells were resuspended in 50 μL per well of PBS and analyzed by flow cytometry. Binding curves were calculated using the mean fluorescence intensity (MFI) of the FITC fluorescence signal on the cells. Bispecific antibody binding was evaluated in KHYG-1 cells expressing endogenous NKG2A and in MC/CAR cells expressing PD-L1. Cells were harvested and assayed for binding as described above.

[5] = biological target: T3, NKG2A expressed on KHYG-1 cells …; experiment: flow cytometry competition; inhibition of HLA-E tetramer binding to KHYG-1 cells; second of the two EC50 values printed for P12×A2; the patent does not say what tells them apart
Protocol: (§5) 15 μL per well of binder dilution at 2× concentration was plated in a 96-well plate (Costar 3897). 15 μL per well of cell suspension at 5×10⁶ cells per mL was added. Plates were placed at 4° C. for 30 minutes. Following the incubation, 5 μL per well of Fc block (BD Pharmingen Cat #564220) was added at a final concentration of 500 ng per well. Plates were placed at 4° C. for 10 minutes. […] Plates were placed at 4° C. for 1 hour. Following the incubation, 100 μL per well of PBS was added and plate was centrifuged at 400×g for 7 minutes. Supernatant was removed by flicking the plate. Cells were resuspended in 50 μL per well of PBS and analyzed by flow cytometry (Intellicyt).

PD-L1 expressed on cells [6] = biological target: T4, PD-L1 expressed on cells (UniProt Q9NZQ7 19-290, limits assumed); experiment: flow cytometry on MC/CAR cells expressing PD-L1
T4 construct: whole, on cells; also called MC/CAR cells expressing PD-L1; PD-L1+MDA-MB-231 cells
Protocol: as §3, §4

[7] = biological target: T5, Human NKG2A & CD94 with mouse IgG2a Fc tag (AcroBiosystems) (human, UniProt P26715 94-233; Q13241 32-179, limits assumed); experiment: SPR (Carterra), antibody on chip, soluble antigen
T5 construct: Bought soluble antigen of the Carterra assay; also called hNKG2A; not shown: mouse IgG2a Fc tag

[8] = biological target: T6, Human PD-L1 with His tag (AcroBiosystems) (human, UniProt Q9NZQ7 19-238); experiment: SPR (Carterra), antibody on chip, soluble antigen
T6 construct: Bought protein; also called hPD-L1; not shown: His tag

Cyno PD-L1 = Cyno PD-L1 (cyno, UniProt G7PSE7 19-238); experiment: SPR (Carterra), antibody on chip, soluble antigen
PD-L1 expressed on cells [9] = biological target: T4, PD-L1 expressed on cells; experiment: cell-based or functional assay
[10] = biological target: T3, NKG2A expressed on KHYG-1 cells …; experiment: flow cytometry competition; inhibition of HLA-E tetramer binding to KHYG-1 cells; first of the two EC50 values printed for P12×A2; the patent does not say what tells them apart
Protocol: as §5

[11] = biological target: T7, cynomolgus NKG2A/CD94 (soluble antigen of the equilibrium assay) (cynomolgus, UniProt Q68VD2 94-233; Q68VD4 32-179, Biotinylated in the Octet assays of Example 2; state in the SPR equilibrium assay not seen.); experiment: SPR equilibrium response, Langmuir isotherm; antibody on chip, soluble antigen
T7 construct: also called Cyno NKG2A/CD94; copies: 1 + 1
Protocol: In addition, a method using an equilibrium approach was performed. Kd determinations for cynomolgus NKG2A/CD94 were performed by measuring the signal response at equilibrium. […] The equilibrium response signals and corresponding antigen concentrations were then input into a Langmuir binding isotherm model, and the Kd was determined through nonlinear regression. Averages and standard deviations were calculated from 24 replicate chip locations for each molecule.

T3 sequence (P26715 whole entry, chain 1 of 2): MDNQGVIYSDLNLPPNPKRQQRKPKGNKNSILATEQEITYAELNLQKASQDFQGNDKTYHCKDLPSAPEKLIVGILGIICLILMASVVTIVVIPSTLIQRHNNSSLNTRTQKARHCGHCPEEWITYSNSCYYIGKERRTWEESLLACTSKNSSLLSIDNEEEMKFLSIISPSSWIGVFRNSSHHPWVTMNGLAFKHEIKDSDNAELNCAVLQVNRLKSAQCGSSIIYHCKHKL
T3 sequence (Q13241 whole entry, chain 2 of 2): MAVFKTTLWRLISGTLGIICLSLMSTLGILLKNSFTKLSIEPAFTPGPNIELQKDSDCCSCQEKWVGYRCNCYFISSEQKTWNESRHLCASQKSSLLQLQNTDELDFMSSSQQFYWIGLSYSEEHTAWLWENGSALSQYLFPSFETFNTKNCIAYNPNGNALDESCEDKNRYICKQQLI
T6 sequence (Q9NZQ7 19-238 limits assumed): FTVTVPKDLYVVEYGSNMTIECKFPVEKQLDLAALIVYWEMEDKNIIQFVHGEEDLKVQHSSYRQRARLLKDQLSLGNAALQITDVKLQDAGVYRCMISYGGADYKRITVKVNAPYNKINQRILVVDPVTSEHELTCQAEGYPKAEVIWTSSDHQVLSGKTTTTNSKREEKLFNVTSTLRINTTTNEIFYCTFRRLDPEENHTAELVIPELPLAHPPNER
Sequence of Cyno PD-L1 (G7PSE7 entry or part of it limits assumed): as the sequence (Q9NZQ7 19-238 limits assumed) above, with A33T, A34S, S62N, R68Q, Q82R, F173L, T185A, T192I, H215L counted along it
T5 sequence (P26715 94-233 limits assumed, chain 1 of 2): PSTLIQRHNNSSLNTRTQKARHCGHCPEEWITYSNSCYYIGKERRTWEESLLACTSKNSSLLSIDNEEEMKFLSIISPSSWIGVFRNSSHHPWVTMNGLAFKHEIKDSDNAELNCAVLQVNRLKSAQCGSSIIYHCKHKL
T5 sequence (Q13241 32-179 limits assumed, chain 2 of 2): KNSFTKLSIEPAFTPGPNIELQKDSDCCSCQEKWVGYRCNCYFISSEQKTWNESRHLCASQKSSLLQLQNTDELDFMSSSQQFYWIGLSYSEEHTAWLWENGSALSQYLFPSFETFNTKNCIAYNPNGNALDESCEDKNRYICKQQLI
T4 sequence (Q9NZQ7 19-290 limits assumed): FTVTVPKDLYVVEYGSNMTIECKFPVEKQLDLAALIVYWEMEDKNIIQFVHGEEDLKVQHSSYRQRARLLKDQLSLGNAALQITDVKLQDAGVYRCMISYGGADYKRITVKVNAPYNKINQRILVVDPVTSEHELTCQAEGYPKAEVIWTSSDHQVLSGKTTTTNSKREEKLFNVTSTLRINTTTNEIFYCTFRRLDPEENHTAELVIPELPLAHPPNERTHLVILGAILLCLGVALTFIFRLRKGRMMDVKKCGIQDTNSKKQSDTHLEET
T2 sequence (P26717 other isoform, or with tags, fused parts or gaps, chain 1 of 2): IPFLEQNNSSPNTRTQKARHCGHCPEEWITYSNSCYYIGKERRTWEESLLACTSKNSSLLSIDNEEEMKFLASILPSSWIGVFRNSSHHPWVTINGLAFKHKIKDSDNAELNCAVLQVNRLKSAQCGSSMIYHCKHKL
T2 sequence (Q13241 32-179, chain 2 of 2): as the sequence (Q13241 32-179 limits assumed, chain 2 of 2) above
T7 sequence (NKG2A, as listed by the source limits assumed, chain 1 of 2): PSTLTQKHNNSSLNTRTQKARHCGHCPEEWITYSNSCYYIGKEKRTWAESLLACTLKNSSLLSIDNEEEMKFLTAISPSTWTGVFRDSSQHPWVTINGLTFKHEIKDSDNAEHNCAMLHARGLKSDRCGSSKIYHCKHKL
T7 sequence (CD94, as listed by the source limits assumed, chain 2 of 2): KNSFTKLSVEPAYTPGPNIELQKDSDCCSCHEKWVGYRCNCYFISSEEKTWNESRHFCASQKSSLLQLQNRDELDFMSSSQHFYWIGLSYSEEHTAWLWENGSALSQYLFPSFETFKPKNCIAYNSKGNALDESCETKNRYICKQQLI
T1 sequence (Q9MZJ3 other isoform, or with tags, fused parts or gaps, chain 1 of 2): as the sequence (NKG2A, as listed by the source limits assumed, chain 1 of 2) above
T1 sequence (Q9MZK9 32-179, chain 2 of 2): as the sequence (CD94, as listed by the source limits assumed, chain 2 of 2) above

binding result [1]: no binding
binding result [2]: no binding
EC50 [3]: 4.35 nM
B1: Antibody Clone A11 (antibody, human IgG1, kappa, V domains shown)
VH: EVQLVESGGGLVQPGGSLRLSCAASGFTFSWYYIHWVRQAPGKGLEWVAVIDPISSYTYYADSVKGRFTISADTSKNTAYLQMNSLRAEDTAVYYCARGFDRAMDYWGQGTLVTVSS
VL: DIQMTQSPSSLSASVGDRVTITCRASKSVSSALAWYQQKPGKAPKLLIYVGSSRYSGVPSRFSGSRSGTDFTLTISSLQPEDFATYYCQQYYSSPYTFGQGTKVEIKR

EC50 [4]: 4.66 nM
EC50 [5]: 65.2 nM
EC50 (PD-L1 expressed on cells [6]): 55.9 nM
Kd [7]: 0.21 nM
koff [7]: 8e-05 s⁻¹
kon [7]: 360000 M⁻¹ s⁻¹
Kd [8]: 0.13 nM
koff [8]: 7e-05 s⁻¹
kon [8]: 530000 M⁻¹ s⁻¹
Kd (Cyno PD-L1): 0.1 nM
koff (Cyno PD-L1): 6e-05 s⁻¹
kon (Cyno PD-L1): 560000 M⁻¹ s⁻¹
IC50 of inhibiting PD-1/PD-L1 interaction in PD-L1+MDA-MB-231 cells (PD-1/PD-L1 Signaling Bioassay, chemiluminescent signal) (PD-L1 expressed on cells [9]): 0.408 nM
EC50 [10]: 21 nM
Kd [11]: 42 nM
B2: P12 × A2 (1 × 1 format) (bispecific antibody)
heavy 1: DIQMTQSPSSLSASVGDRVTITCRASQSVSSAVAWYQQKPGKAPKLLIYSASSLYSGVPSRFSGSRSGTDFTLTISSLQPEDFATYYCQQFMLEPITFGQGTKVEIKGQPREPQVCTLPPSRDELTKNQVSLTCLVRGFYPSDIAVEWESNGQPENNYKTTPPVLDSDGSFFLYSKLTVDKSRWQQGNVFSCSVMHEALHNHYTQKSLSLSPGKDKTHTCPPCPAPEAAGGPSVFLFPPKPKDTLMISRTPEVTCVVVDVSHEDPEVKFNWYVDGVEVHNAKTKPREEQYNSTYRVVSVLTVLHQDWLNGKEYKCKVSNKALKAPIEKTISKAKGQPREPQVYTLPPSREEMTKNQVSLSCAVKGFYPSDIAVEWESNGQPENNYKTTPPVLDSDGSFFLVSKLTVDKSRWQQGNVFSCSVMHEALHNHYTQKSLSLSPGK
light 1: EVQLVESGGGLVQPGGSLRLSCAASGFTFSSYYIHWVRQAPGKGLEWVATINSRGGFTLYADSVKGRFTISADTSKNTAYLQMNSLRAEDTAVYYCARGYTLTPVLDYWGQGTLVTVSSAQPREPQVYTLPPCRDWLTKNQVSLTCLVKGFYPSDIAVEWESNGQPENNYKTTPPVLDSDGSFFLYSKLTVDKSRWQQGNVFSCSVMHEALHNHYTQKSLSLSPGK
heavy 2: not shown
light 2: EVQLVESGGGLVQPGGSLRLSCAASGFTFSSYYIHWVRQAPGKGLEWVASYVPEDGYTDYADSVKGRFTISADTSKNTAYLQMNSLRAEDTAVYYCARSSDFIPWTSSGGMDYWGQGTLVTVSSASTKGPSVFPLAPSSKSTSGGTAALGCLVKDYFPEPVTVSWNSGALTSGVHTFPAVLQSSGLYSLSSVVTVPSSSLGTQTYICNVNHKPSNTKVDKKVEPKSC
notes: One PD-L1 site, one NKG2A site; also called P12×A2, sFc; P12 × A2 sFc
